Reference: publication PMC8805405 (Journal of Nanobiotechnology, 2022)
Read-outs that look alike come from different tables or passages of the source.

Target: T1, recombinant human TNF-α (Homo sapiens, UniProt P01375)
T1 construct: tumor necrosis factor alpha, human, recombinant; also called tumor necrosis factor (TNF)-α; source: bought: R&D Systems
Test: BLI; BLItz; human TNF-α (5 μg/mL in 10 mM acetate, pH 5) immobilised on AR2G biosensors by EDC/s-NHS; various concentrations of antibody at room temperature; global fit, BLItz Pro 1.2

T1 sequence (P01375 77-233): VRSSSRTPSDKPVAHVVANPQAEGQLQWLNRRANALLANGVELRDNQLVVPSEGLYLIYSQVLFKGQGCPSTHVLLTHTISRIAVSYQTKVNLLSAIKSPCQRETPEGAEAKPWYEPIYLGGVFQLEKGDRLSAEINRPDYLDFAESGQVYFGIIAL

| Binder | Kd [nM] | koff [s⁻¹] | kon [M⁻¹ s⁻¹] | Kd (both partners purified) [nM] | koff (both partners purified) [s⁻¹] | kon (both partners purified) [M⁻¹ s⁻¹] |
| --- | --- | --- | --- | --- | --- | --- |
| humanized anti-TNF-α mAb C5 (C + b) (antibody, V domains shown) VH: EVQLVESGGGLVKPGGSLRLSCAASGFTFSNHWMNWVRQAPGKGLEWVGEIRSKSINSATHYAAPVKGRFTISRDDSKNTLYLQMNSLKTEDTAVYYCTRNYYGSTYDYWGQGTTVTVSS VL: EIVLTQSPDFQSVTPKEKVTITCRASQSIGSSLHWYQQKPDQSPKLLIKYASQSFSGVPSRFSGSGSGTDFTLTINSLEAEDAATYYCHQSSSWPFTFGQGTKLEIK | 17.7 | 0.000475 | 26800 |  |  |  |
| humanized anti-TNF-α mAb C3 (B + b) (antibody, V domains shown, VH grafting condition b (Remicade CDRs on human germline IGHV3-15*07-JH5); as the heavy chain of m4; heavy-chain constant region; VL grafting condition B (Remicade CDRs on human germline IGKV6-21*01-JK2); light-chain constant region; source: Expi293, transfected, purified (protein A sepharose)) VH: EVQLVESGGGLVKPGGSLRLSCAASGFTFSNHWMNWVRQAPGKGLEWVGEIRSKSINSATHYAAPVKGRFTISRDDSKNTLYLQMNSLKTEDTAVYYCTRNYYGSTYDYWGQGTTVTVSS VL: EIVLTQSPDFQSVTPKEKVTITCRASQFIGSSLHWYQQKPDQSPKLLIKYASQSFSGVPSRFSGSGSGTDFTLTINSLEAEDAATYYCHQSHSWPFTFGQGTKLEIK |  |  |  | 5.5 | 0.00015 | 27200 |
| humanized anti-TNF-α mAb C1 (A + a) (antibody, V domains shown, VH grafting condition a (Remicade CDRs on human germline IGHV3-15*07-JH5); heavy-chain constant region; VL grafting condition A (Remicade CDRs on human germline IGKV6-21*01-JK2); light-chain constant region; source: Expi293, transfected, purified (protein A sepharose)) VH: EVQLVESGGGLVKPGGSLRLSCAASGFTFSNHWMNWVRQAPGKGLEWVGEIRSKSINSATHYAESVKGRFTISRDDSKNTLYLQMNSLKTEDTAVYYCTRNYYGSTYDYWGQGTTVTVSS VL: EIVLTQSPDFQSVTPKEKVTITCRASQFVGSSIHWYQQKPDQSPKLLIKYASESMSGVPSRFSGSGSGTDFTLTINSLEAEDAATYYCQQSHSWPFTFGQGTKLEIK |  |  |  | 0.935 | 0.000134 | 143000 |
